Biological target: T cell surface antigens CTLA4 and PD-1
Experiment: flow cytometry, PHA-stimulated CD4+ T cells, antibody 100 nM (PBS 8.39)

MFI (fluorescence intensity): 10.2
Substance: hIgG (control) (antibody)

From patent publication US20260274952A1
